# Assay results as given in doi:10.1101/2021.04.01.438122.
# Molecular target: human Angiotensin Converting Enzyme 2 (amino acids 19-615) fused to human IgG Fc (human) (UniProt Q9BYF1)
# Test: SPR
substance,measurement,value
SARS-CoV-2 receptor binding domain (RBD amino acids 330-532) with the Y489R mutation (domain or fragment),reduction of binding against RBD-WT,94%
